Assay results taken from patent publication US20190212343A1, “METHODS FOR THE TREATMENT OF DISORDERS RELATED TO PHOSPHORYLATION OF HISTONES” (H. LEE MOFFITT CANCER CENTER AND RESEARCH INSTITUTE, INC., priority 2014, published 2019).

Columns and labels:
[1] = system: histone H3 Tyr99-phosphorylation (ACK1); assay: Histone H3 Tyr99-phosphorylation in JAR cells (immunoblotting); type: cell-based, human; settings: EGF alone
Experimental: (§1) FIGS. 5A-5D show ACK1 deposits pY99-H3 epigenetic marks in SLC6A4 promoter and intron 2. (FIG. 5A) Lysates prepared from JAR cells treated with EGF ligand were subjected to immunoblotting with indicated antibodies. (FIG. 5B) Lysates prepared from JAR cells treated with EGF or AIM-100 were subjected to immunoblotting with indicated antibodies. (FIG. 5C) Total RNA was prepared from JAR cells untreated or treated with EGF ligand followed by quantitative RT-PCR using SLC6A4 and actin primers. The ratio of SLC6A4 to actin is shown. (FIG. 5D) JAR cells were treated with EGF ligand and ChIP was performed using pY99-H3 antibodies followed by quantitative PCR using primers corresponding to intron 2 (VNTR).
(§2) JAR cells are human placenta-derived epithelial cells that express SLC6A4 or SERT. Applicant first assessed presence of ACK1 signaling in JAR cells by treating these cells with EGF ligand. […] ACK1 activation was also reflected in histone H3 Tyr99-phosphorylation (FIG. SA, 2nd panel).
To validate critical role of ACK1 in histone H3 Tyr99-phosphoryation, JAR cells were treated with EGF or EGF+AIM-100.

SLC6A4 mRNA = SLC6A4 mRNA expression (real time RT-PCR); type: cell-based, human; settings: JAR cells treated with EGF ligand
Experimental: The ratio of SLC6A4 to actin is shown. (FIG. 5D) JAR cells were treated with EGF ligand and ChIP was performed using pY99-H3 antibodies followed by quantitative PCR using primers corresponding to intron 2 (VNTR). […]
Applicant also identified for the first time that human and mouse serotonin transporter (SLC6A4 or SERT or 5-HTT) gene expression is regulated by ACK1. A novel mechanism was identified that is operational in SLC6A4 gene regulation. ACK1 deposits pY99-H3 epigenetic marks in promoter (5-HTTLPR) and intron 2 (VNTR) of SLC6A4 gene to regulate its transcription. […] Without being bound by theory, applicant believes that expression of Gabra6, Slc6a2, Slc6a4, Slc6a5 and Oxt genes as well as genes shown in Table 2 are also regulated by ACK1/pY99-H3 epigenetic activity/signaling.

[2] = system: histone H3 Tyr99-phosphorylation (ACK1); assay: Histone H3 Tyr99-phosphorylation in HEK293 cells (pY99-H3 immunoprecipitation / H3 immunoblot); type: cell-based; settings: HEK293 cells treated with EGF ligand
Experimental: FIGS. 3A-3E show Ack1 phosphoryltes H3 at Tyr99 residue. […] (FIG. 3B) HEK293 cells co-expressing Myc-tagged Ack1 (WT) or KD mutant ACK1 and FLAG-tagged H3 or Y99F mutant […] were serum-starved (24h) and lysates were immunoprecipitated with pY99-H3 antibodies followed by immunoblotting with FLAG antibody (top panel). (FIG. 3C) HEK293 cells were treated with EGF ligand for indicated time points. Equal amounts of lysates were immunoprecipitated pY99-H3 antibodies followed by with immunoblotting with H3 antibody (top panel). (FIG. 3D) HEK293 cells were treated with ACK1 inhibitor, AIM-100 (5 uM overnight) and/or EGF ligand 20 min. Equal amounts of lysates were immunoprecipitated pY99-H3 antibodies followed by with immunoblotting with H3 antibody (top panel). […] (FIG. 3E) HEK293 cells were treated with increasing concentrations of AIM-100 (1, 2, 3 and 5 μM). Equal amounts of lysates were immunoprecipitated pY99-H3 antibodies followed by with immunoblotting with H3 antibody (top panel).
The Tyrosine99 or Y99 site in H3 protein is evolutionarily conserved (FIG. 3A). To examine whether H3 is ACK1 kinase substrate, HEK293 cells were co-transfected with HA-tagged ACK1 and FLAG-tagged H3 or FLAG-tagged Y99F mutant H3 expressing constructs. ACK I specifically phosphorylated H3 protein, but not the Y99F mutant protein (FIG. 3B). […]

ACK1 = ACK1 activation (phosphorylation) in JAR cells, immunoblotting; type: cell-based, human; settings: 10 min of treatment
Experimental: as §1, §2

[3] = system: pY99-H3 marks at SLC6A4 promoter (5-HTTLPR) and intron 2 (VNTR); assay: ChIP with pY99-H3 antibodies and real time PCR at SLC6A4 gene in JAR cells; type: cell-based, human; settings: EGF treatment
Experimental: as §1
Applicant hypothesized that ACK1 deposits pY99-H3 epigenetic marks in promoter (5-HTTLPR) and intron 2 (VNTR) of SLC6A4 gene to regulate its transcription. To test this hypothesis, applicant performed chromatin immunoprecipitation (ChIP) with pY99-H3 antibodies followed by real time PCR for primers corresponding to promoter (5-HTTLPR) and intron 2 (VNTR) of SLC6A4 gene.

B1: EGF: EGF ligand used to activate ACK1 (protein, UniProt P01133 23-1207, looked up)
Pro-epidermal growth factor: PQHWSCPEGTLAGNGNSTCVGPAPFLIFSHGNSIFRIDTEGTNYEQLVVDAGVSVIMDFHYNEKRIYWVDLERQLLQRVFLNGSRQERVCNIEKNVSGMAINWINEEVIWSNQQEGIITVTDMKGNNSHILLSALKYPANVAVDPVERFIFWSSEVAGSLYRADLDGVGVKALLETSEKITAVSLDVLDKRLFWIQYNREGSNSLICSCDYDGGSVHISKHPTQHNLFAMSLFGDRIFYSTWKMKTIWIANKHTGKDMVRINLHSSFVPLGELKVVHPLAQPKAEDDTWEPEQKLCKLRKGNCSSTVCGQDLQSHLCMCAEGYALSRDRKYCEDVNECAFWNHGCTLGCKNTPGSYYCTCPVGFVLLPDGKRCHQLVSCPRNVSECSHDCVLTSEGPLCFCPEGSVLERDGKTCSGCSSPDNGGCSQLCVPLSPVSWECDCFPGYDLQLDEKSCAASGPQPFLLFANSQDIRHMHFDGTDYGTLLSQQMGMVYALDHDPVENKIYFAHTALKWIERANMDGSQRERLIEEGVDVPEGLAVDWIGRRFYWTDRGKSLIGRSDLNGKRSKIITKENISQPRGIAVHPMAKRLFWTDTGINPRIESSSLQGLGRLVIASSDLIWPSGITIDFLTDKLYWCDAKQSVIEMANLDGSKRRRLTQNDVGHPFAVAVFEDYVWFSDWAMPSVMRVNKRTGKDRVRLQGSMLKPSSLVVVHPLAKPGADPCLYQNGGCEHICKKRLGTAWCSCREGFMKASDGKTCLALDGHQLLAGGEVDLKNQVTPLDILSKTRVSEDNITESQHMLVAEIMVSDQDDCAPVGCSMYARCISEGEDATCQCLKGFAGDGKLCSDIDECEMGVPVCPPASSKCINTEGGYVCRCSEGYQGDGIHCLDIDECQLGEHSCGENASCTNTEGGYTCMCAGRLSEPGLICPDSTPPPHLREDDHHYSVRNSDSECPLSHDGYCLHDGVCMYIEALDKYACNCVVGYIGERCQYRDLKWWELRHAGHGQQQKVIVVAVCVVVLVMLLLLSLWGAHYYRTQKLLSKNPKNPYEESSRDVRSRRPADTEDGMSSCPQPWFVVIKEHQDLKNGGQPVAGEDGQAADGSMQPTSWRQEPQLCGMGTEQGCWIPVSSDKGSCPQVMERSFHMPSYGTQTLEGGVEKPHSLLSANPLWQQRALDPPHQMELTQ
modifications: Pro-epidermal growth factor
B1 was tested, and the “histone H3 Tyr99-phosphorylation” value [1] was “significant upregulation of histone H3 Tyr99-phosphoryation”, the “SLC6A4 mRNA levels” value (SLC6A4 mRNA) was “significant increase in SLC64A mRNA levels” and the “endogenous H3 Tyr99-phosphorylation” value [2] was “significant upregulation in endogenous H3 Tyr99-phosphorylation”. The “ACK1 activation (phosphorylation)” value (ACK1) was “robust ACK1 activation” and the “deposition of pY99-H3 marks at promoter (5-HTTLPR) and intron 2 (VNTR) of SLC6A4 gene” value [3] was “significant increase in deposition of pY99-H3 marks”.
